Assay results taken from patent US7288381 (PHADIA, dated 2007).

Biological target: T1, β-gal alone (λgt 11 phage control proteins) (UniProt P00722 2-1024 = β-galactosidase)
T1 construct: Negative control dot; also called β-gal alone (4); λgt 11 phage control proteins (4)
Assay: dot blot of β-gal fusion proteins, anti-human Fab detection
Protocol: Expression of Recombinant Fragments of the Phl p 2 Allergen for Mapping of the Binding Sites of the Human IgE Fabs Lambda gt11 phage clones expressing β-galactosidase fused complete Phl p 2 and Phl p 2 fragments were generated as described (8). E. coli Y1090 were plated as confluent lawn onto LB plates containing 100 mg/l ampicillin (19). Two µl aliquots of phage lysates containing >10^6 plaque-forming units of each phage clone were dotted onto the E. coli lawn in defined order and plates were incubated at 43° C. until plaques became visible. The synthesis of recombinant protein was induced by overlay with 10 mM IPTG-soaked nitrocellulose filters (Schleicher& Schuell, Dassel, Germany) for additional 4 hours The clones which reacted with the IgE Fabs were identified by immunoscreening. For this purpose filters were washed twice for 5 min and once for 30 min with TBST containing 0.5% w/v BSA at roomtemperature and then probed overnight with E. coli extracts containing anti-Phl p 2 Fab and, for control purposes, with extracts from E. coli transformed with the empty pComb 3H plasmid at 4° C. After washing, the Fabs were detected with an alkaline phospatase-coupled goat anti-human Fab antiserum diluted 1:5000 in TBST/0.5% w/v BSA.
A Recombinant Fragment Comprising the N-terminal 64 Amino Acids of Phl p 2 Contains the Binding Site for the IgE Fabs In order to determine the binding site for the rPhl p 2-specific IgE Fabs, nitrocellulose-dotted complete β-gal-fused rPhl p 2 allergen (96 aa), a N-terminal rPhl p 2 fragment comprising the first 64 aa portion (1-64) and a 69 aa long C-terminal rPhl p 2 fragment (28-96 aa) were exposed to the Fabs (FIG. 2A). […] The N-terminal and C-terminal fragment have been indicated in the model (FIG. 2B).

T1 sequence (P00722 2-1024 limits assumed): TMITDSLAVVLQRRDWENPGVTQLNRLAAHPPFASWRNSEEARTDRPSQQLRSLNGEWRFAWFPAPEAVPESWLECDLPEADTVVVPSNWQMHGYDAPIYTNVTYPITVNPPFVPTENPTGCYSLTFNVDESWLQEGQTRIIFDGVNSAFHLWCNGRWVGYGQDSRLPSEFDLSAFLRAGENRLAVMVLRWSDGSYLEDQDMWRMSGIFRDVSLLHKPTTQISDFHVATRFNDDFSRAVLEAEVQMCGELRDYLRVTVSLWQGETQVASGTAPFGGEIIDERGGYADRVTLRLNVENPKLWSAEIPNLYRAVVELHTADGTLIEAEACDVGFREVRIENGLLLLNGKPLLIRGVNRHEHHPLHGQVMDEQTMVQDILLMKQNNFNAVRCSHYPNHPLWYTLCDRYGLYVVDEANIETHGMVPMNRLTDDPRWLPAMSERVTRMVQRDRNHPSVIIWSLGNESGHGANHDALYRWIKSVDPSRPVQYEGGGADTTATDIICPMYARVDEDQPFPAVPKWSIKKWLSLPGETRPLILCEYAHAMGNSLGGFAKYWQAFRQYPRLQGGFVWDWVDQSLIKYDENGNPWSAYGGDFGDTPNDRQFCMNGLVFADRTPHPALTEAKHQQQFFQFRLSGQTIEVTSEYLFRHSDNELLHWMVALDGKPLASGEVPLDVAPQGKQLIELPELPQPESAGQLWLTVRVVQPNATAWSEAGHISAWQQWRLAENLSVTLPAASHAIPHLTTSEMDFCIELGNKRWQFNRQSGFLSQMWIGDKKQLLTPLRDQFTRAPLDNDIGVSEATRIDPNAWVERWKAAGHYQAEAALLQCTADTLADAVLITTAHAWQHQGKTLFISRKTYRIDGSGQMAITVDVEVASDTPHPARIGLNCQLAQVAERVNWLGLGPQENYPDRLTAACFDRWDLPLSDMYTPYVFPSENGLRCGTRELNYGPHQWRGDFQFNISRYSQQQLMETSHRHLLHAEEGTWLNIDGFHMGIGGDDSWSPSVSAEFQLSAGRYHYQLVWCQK

Binder	binding result
Phl p 2-specific human IgE Fab, clone 94 (Fab, V domains shown, Human IgE Fab (heavy chain fragment Fd plus kappa light chain) expressed from pComb3H in E. coli and used as bacterial extract; they start at the Xho I / Sac I cloning sites; also called clone 94-derived IgE Fab; rPhl p 2-specific IgE Fab) VH: LESGPGLVKPAQTLSLSCAVSGGSIRSGGYYWSWIRQHPGKGLEWIGYIYHSGNTYYNPSLKSRIAMSVDTSENKFSLRLNSVTAADTAVYYCARLDGYTLDIWGQGTLVTVSS VL: ELTQSPSSLSASVGDRVTISCRASQRINTYLNWYQHKPGKAPKLLIYAASSLQSGVPSRFSGSGYGTDFTLTISSLQFEDFASYYCQESLSASYTFGQGTKVEIKR	no binding
Phl p 2-specific human IgE Fab, clone 60 (Fab, V domains shown, Human IgE Fab (Fd plus kappa light chain) expressed from pComb3H in E. coli and used as bacterial extract; also called rPhl p 2-specific IgE Fab; anti-Phl p 2 Fab) VH: LESGPGLVKPSQTLSLTCTVSGGSIRSGGYYWSWVRQPPGKGLEWIGNIYHSGNTYYNPSLKSRITMSVDTSKNHFSLRLTSVTAADTAVYYCARSDGYTLDNWGQGTLVTVSS VL: ELTQSPSSLSASVGDRVTITCRARQSISTYLNWYQQKPGKAPKLLIWSASNLQSGVPSRFSGSGSGTEFTLTISNLQFEDFASYYCQQSYTTLYTFGSGTKLEIKR	no binding
Phl p 2-specific human IgE Fab, clone 100 (Fab, V domains shown, Human IgE Fab (Fd plus kappa light chain) expressed from pComb3H in E. coli and used as bacterial extract; also called rPhl p 2-specific IgE Fab; anti-Phl p 2 Fab) VH: LESGPGLVKPSQTLSLTCTVSGGSIRSGGYYWSWIRQPPGKGLEWIGYIYHSGNTYYNPSLKSRVTMSVDTSKNHFSLRLSSVTAADTAVYYCARSDGYTLDNWGQGTLVTVSS VL: ELTQSPSSVSASVGDRVTITCRASQGISSWLAWYQHQPGKAPKLLIYSASSLQSGVPSRFSGSGYGTDFSLTISSLQFEDSATYYCQQANSFPYTFGQGTKVEIKR	no binding
